Test results reported in the RNAGym collection of RNA variant scans (doi:10.1073/pnas.2313332121).

B1: TPR t1 (parent)
chain: GACCAAUCUGCCCUCAGAGCUCGAGAACAUCUUCGGAUGCAGAGGAGGCAGGCUUCGGUGGCGCGAUAGCGCCAACGUCCUCAACCUCCAAUGCAUCCCACCACAUGAUGAUGCCUGAAGAGCCUUGGUUUUUUG

Variants of: B1
Assay: polymerase ribozyme fitness, log enrichment relative to wild type (log ratio); higher = more active; in vitro selection for triplet polymerase activity
Method in brief: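 To select mutant libraries of each subunit of a heterodimeric triplet polymerase ribozyme, built by PCR and transcribed, each was annealed with a biotinylated primer, partner subunit and triplets, then incubated frozen at −7 °C. Extended constructs were gel-excised, captured on streptavidin beads and amplified by RT-PCR, in one round carried out in triplicate. Illumina sequencing of input and output libraries kept genotypes with ≥10 input reads and ≥1 read per output. Fitness is the base-2 logarithm of genotype enrichment relative to wild-type enrichment, from inverse-variance-weighted replicate averages.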

Row | Variant | polymerase ribozyme fitness (log ratio)
1 | G17A A43G G127A | -4.18
2 | G17A C49A G58A G110C | -6.79
3 | A18C G47U A111U U129G | -7.66
4 | A18G C20A C79U G117C | -3.24
5 | A18U G63U | -4.1
6 | A18U G63A | -3.69
7 | A16U C70G | -2.98
8 | G17U C72A | -1.86
9 | A18U G61A C70U C115A | -5.05
10 | A16G U81A | -2.36
11 | A16U G47U G52U G65U C115U G117C | -6.26
12 | A18C A118U | -0.81
13 | A18G U81C C89U | -4.16
14 | A16G G69C A84G C102A C114U C115A | -6.44
15 | G17A G23U G61U C76U C114A | -5.73
16 | A18C U87G U132A | -2.91
17 | A18C G42U U54C C82G | -2.51
18 | A18U A43U | -1
19 | A18U G69A | -5.06
20 | A16U G39U | -3.47
21 | A16U C72G | -1.5

Row | Variant | polymerase ribozyme fitness (log ratio)
22 | G17U A18C C53G | -3.98
23 | A16U C114A | -4.01
24 | A18G G60A C88U A90C | -4.63
25 | G17C C73U | -4.07
26 | A18U G60U U92G | -3.05
27 | A18C A37C U112C | -1.3
28 | A18C C88U A90G C114G | -0.417
29 | A18U C85U C94G | -5.59
30 | A16G G69U C73U C99U | -2.5
31 | A16U U96A | -2.28
32 | A16C C53G G63U U132C | -4
33 | G17A A18C C22U G35A A75U C79G A90G C99A C124G | -5.46
34 | A18C A29G G61A | -2.27
35 | G17A U109A G117A C124A | -5.22
36 | A18U A43C A121C | -0.924
37 | A16U G52A C72U | -1.31
38 | A16U G51U | -4.76
39 | G17U A121G | 0.688
40 | A18C C88U A95G | -2.41
41 | A16G G69C A91U G113U | -3.01
42 | A18C U109A | -5.77

Row | Variant | polymerase ribozyme fitness (log ratio)
43 | G17A A18C C114G C124A G135U | -5.65
44 | A18C G110A | -3.98
45 | A18U G57U C88U C101G | -6.08
46 | G17U U78A | -2.93
47 | A16C U32G G69A U109C G135A | -6.26
48 | A18C G45A C53U G113A | -3.09
49 | A18C G63A U92G U112C G117A | -4.55
50 | G17U G52C A74U G77U C123U | -2.34
51 | A18C U92G A121G | -0.659
52 | A18C U32C A46U A90U C114U | -3.04
53 | A18U C20U U87G | -2.42
54 | A18U C94G A121C U126G | -5.02
55 | A18G G36C G45U U112A | -2.4
56 | A18G G42A C72G G113A U132A | -2.54
57 | A18U U54A A83U | -4.98
58 | G17A C88U U133A | -3.95
59 | G17A G77U U78A A118U | -4.97
60 | G17U G45U G61U U81A | -3.74
61 | A16U G23A G36U A46C G47C C73A C114U U129G U132A | -7.62
62 | A18C C40U A41G C56G | -3.24
63 | A16G C49A C73U | -0.946

Row | Variant | polymerase ribozyme fitness (log ratio)
64 | A18U A43U U59G G113A U125C | -2.05
65 | A16U U59A C124A | 1.46
66 | G17C A29G C72A | -5.8
67 | G17C G48A C80U A83C A95G C123G | -6.14
68 | G17U A95G U131A | -2.77
69 | A16C C62G A74G C114U | -5.78
70 | G17C C56U | -3.79
71 | A18C A83C A91G A111C | -3.03
72 | A18G C70U C82A | -6.34
73 | G17A G47U | -4.84
74 | G17A C123U | -2.01
75 | A18U G44C G69U | -0.776
76 | G17U A29U C72U | -4.39
77 | A16U U116G | 0.557
78 | A16U A37C C53A A91G U112A | -1.42
79 | G17U C64U U78C | -3.17
80 | A16U G17C C123U U126C | -2.6
81 | A18G A43U G71U U87C | -4.47
82 | A18C G113U | -4.82
83 | A16U A50C C56A A95C | -3.91
84 | G17U A46C C62U U112A C115A U132G U134A | 0.56
